# Assay results from US20240116985A1 (published 2024).
# Starred links: 1 amine or outer side, 2 acyl side, 3 side chain; linkers in the order of their positions; H or OH if unused. Positions of bridges follow the written chain, without caps; N, C: chain ends. Non-standard residues stand in square brackets, D forms with d. Primed or numbered codes have the meaning given here. B5(4) = 2,2-bis(4-pentenyl)glycine = 2-amino-2-(pent-4-en-1-yl)hept-6-enoic acid (stitching residue), C=CCCCC(CCCC=C)(N[*:1])C(=O)[*:2]; B5(9) = 2-amino-2-(pent-4-en-1-yl)hept-6-enoic acid (2,2-bis(4-pentenyl)glycine), C=CCCCC(CCCC=C)(N[*:1])C(=O)[*:2]; B5(14) = 2-amino-2-(pent-4-en-1-yl)hept-6-enoic acid (bis-pentenylglycine), C=CCCCC(CCCC=C)(N[*:1])C(=O)[*:2]; WCHO = 1-formyl-L-tryptophan, O=Cn1cc(C[C@H](N[*:1])C(=O)[*:2])c2ccccc21; S(OMe) = O-methyl-L-serine, COC[C@H](N[*:1])C(=O)[*:2]; Phe(2-CONH2) = NC(=O)c1ccccc1C[C@H](N)C(=O)O; His(τ-Me) = Cn1cnc(C[C@H](N)C(=O)O)c1; Bta = N[C@@H](Cc1csc2ccccc12)C(=O)O; αAllylPro = C=CC[C@@]1(C(=O)O)CCCN1; S8 = C=CCCCCCC[C@](C)(N)C(=O)O
# B1: I-329 (peptide)
# peptide: Ac-[αAllylPro]DA[B5(4)]DDAA[His(τ-Me)]V[S8]FWQ-NH2
# modifications: staple 1-4, 4-11; not fully specified; printed as Ac-PL3-Asp-Ala-B5-Asp-Asp-Ala-Ala-1meH-Val-S8-Phe-Trp-Gln-NH2
# notes: Stapled peptide composition; also called Ac-PL3-Asp-Ala-B5-Asp-Asp-Ala-Ala-1meH-Val-S8-Phe-Trp-Gln-NH2
# B2: I-353 (peptide)
# peptide: XDAXDDAAAVXFWQ
# modifications: not fully specified; N-terminal Ac; PL3 at 1; B5 at 4; S8 at 11; C-terminal NH2; stapled PL3-B5 and B5-S8 (olefin metathesis)
# notes: Stapled peptide composition; also called Ac-PL3-Asp-Ala-B5-Asp-Asp-Ala-Ala-Ala-Val-S8-Phe-Trp-Gln-NH2
# B3: I-330 (peptide)
# peptide: Ac-[αAllylPro]DA[B5(4)]DDAA[His(τ-Me)]V[S8]FWQ-NH2
# modifications: staple 1-4, 4-11
# notes: as for B1
# B4: I-331 (peptide)
# peptide: Ac-[αAllylPro]DA[B5(14)]DDAAHV[S8]FWQ-NH2
# modifications: staple 1-4, 4-11; not fully specified (residue 9)
# notes: Stapled peptide composition; also called Ac-PL3-Asp-Ala-B5-Asp-Asp-Ala-Ala-3meH-Val-S8-Phe-Trp-Gln-NH2
# B5: I-332 (peptide)
# peptide: Ac-[αAllylPro]DA[B5(14)]DDAAHV[S8]FWQ-NH2
# modifications: staple 1-4, 4-11; not fully specified (residue 9)
# notes: as for B4
# B6: I-333 (peptide)
# peptide: Ac-[αAllylPro]DA[B5(4)]DDAAFS[S8]F[WCHO]S-NH2
# modifications: staple 1-4, 4-11
# notes: Stapled peptide composition; also called Ac-PL3-Asp-Ala-B5-Asp-Asp-Ala-Ala-Phe-Ser-S8-Phe-WCHO-Ser-NH2
# B7: I-336 (peptide)
# peptide: Ac-[αAllylPro]DA[B5(4)]DDAAFV[S8][Phe(2-CONH2)][Bta]Q-NH2
# modifications: staple 1-4, 4-11
# notes: Stapled peptide composition; also called Ac-PL3-Asp-Ala-B5-Asp-Asp-Ala-Ala-Phe-Val-S8-2CBMF-BztA-Gln-NH2
# B8: I-341 (peptide)
# peptide: Ac-[αAllylPro]DA[B5(9)]DDAAFV[S8]Y[Bta]Q-NH2
# modifications: staple 1-4, 4-11
# notes: Stapled peptide composition; also called Ac-PL3-Asp-Ala-B5-Asp-Asp-Ala-Ala-Phe-Val-S8-Tyr-BztA-Gln-NH2
# B9: I-342 (peptide)
# peptide: Ac-[αAllylPro]DA[B5(9)]DDAAFT[S8]F[Bta]Q-NH2
# modifications: staple 1-4, 4-11
# notes: Stapled peptide composition; also called Ac-PL3-Asp-Ala-B5-Asp-Asp-Ala-Ala-Phe-Thr-S8-Phe-BztA-Gln-NH2
# B10: I-345 (peptide)
# peptide: Ac-[αAllylPro]D[S(OMe)][B5(9)]DDAAFV[S8]F[Bta]Q-NH2
# modifications: staple 1-4, 4-11
# notes: Stapled peptide composition; also called Ac-PL3-Asp-S(OMe)-B5-Asp-Asp-Ala-Ala-Phe-Val-S8-Phe-BztA-Gln-NH2
# B11: I-346 (peptide)
# peptide: XDQXDDAAFVXFXQ
# modifications: not fully specified; N-terminal Ac; PL3 at 1; B5 at 4; S8 at 11; BztA at 13; C-terminal NH2; stapled PL3-B5 and B5-S8 (olefin metathesis)
# notes: Stapled peptide composition; also called Ac-PL3-Asp-Gln-B5-Asp-Asp-Ala-Ala-Phe-Val-S8-Phe-BztA-Gln-NH2
# B12: I-347 (peptide)
# peptide: XDQXDDAAFVXFXQ
# modifications: not fully specified; N-terminal Ac; PL3 at 1; B5 at 4; S8 at 11; BztA at 13; C-terminal NH2; stapled PL3-B5 and B5-S8 (olefin metathesis)
# notes: as for B11
# B13: I-337 (peptide)
# peptide: XDAXDDAAFVXFXQ
# modifications: not fully specified; N-terminal Ac; PL3 at 1; B5 at 4; S8 at 11; 4CBMF at 12; BztA at 13; C-terminal NH2; stapled PL3-B5 and B5-S8 (olefin metathesis)
# notes: Stapled peptide composition; also called Ac-PL3-Asp-Ala-B5-Asp-Asp-Ala-Ala-Phe-Val-S8-4CBMF-BztA-Gln-NH2
# B14: I-338 (peptide)
# peptide: XDAXDDAAFVXFXQ
# modifications: not fully specified; N-terminal Ac; PL3 at 1; B5 at 4; S8 at 11; 4CBMF at 12; BztA at 13; C-terminal NH2; stapled PL3-B5 and B5-S8 (olefin metathesis)
# notes: as for B13
# B15: I-348 (peptide)
# peptide: XAAXDDAAFVXFWQ
# modifications: not fully specified; N-terminal Ac; PL3 at 1; B5 at 4; S8 at 11; C-terminal NH2; stapled PL3-B5 and B5-S8 (olefin metathesis)
# notes: Stapled peptide composition; also called Ac-PL3-Ala-Ala-B5-Asp-Asp-Ala-Ala-Phe-Val-S8-Phe-Trp-Gln-NH2
# B16: I-349 (peptide)
# peptide: XAAXDDAAFVXFWQ
# modifications: not fully specified; N-terminal Ac; PL3 at 1; B5 at 4; S8 at 11; C-terminal NH2; stapled PL3-B5 and B5-S8 (olefin metathesis)
# notes: as for B15
# B17: I-350 (peptide)
# peptide: XDAXADAAFVXFWQ
# modifications: not fully specified; N-terminal Ac; PL3 at 1; B5 at 4; S8 at 11; C-terminal NH2; stapled PL3-B5 and B5-S8 (olefin metathesis)
# notes: Stapled peptide composition; also called Ac-PL3-Asp-Ala-B5-Ala-Asp-Ala-Ala-Phe-Val-S8-Phe-Trp-Gln-NH2
# B18: I-351 (peptide)
# peptide: XDAXADAAFVXFWQ
# modifications: not fully specified; N-terminal Ac; PL3 at 1; B5 at 4; S8 at 11; C-terminal NH2; stapled PL3-B5 and B5-S8 (olefin metathesis)
# notes: as for B17
# Molecular target: T1, full-length beta-Catenin (Uniprot ID P35222) (Homo sapiens (Human), UniProt P35222 1-781)
# T1 construct: also called bCat; B-Catenin
# T1 sequence: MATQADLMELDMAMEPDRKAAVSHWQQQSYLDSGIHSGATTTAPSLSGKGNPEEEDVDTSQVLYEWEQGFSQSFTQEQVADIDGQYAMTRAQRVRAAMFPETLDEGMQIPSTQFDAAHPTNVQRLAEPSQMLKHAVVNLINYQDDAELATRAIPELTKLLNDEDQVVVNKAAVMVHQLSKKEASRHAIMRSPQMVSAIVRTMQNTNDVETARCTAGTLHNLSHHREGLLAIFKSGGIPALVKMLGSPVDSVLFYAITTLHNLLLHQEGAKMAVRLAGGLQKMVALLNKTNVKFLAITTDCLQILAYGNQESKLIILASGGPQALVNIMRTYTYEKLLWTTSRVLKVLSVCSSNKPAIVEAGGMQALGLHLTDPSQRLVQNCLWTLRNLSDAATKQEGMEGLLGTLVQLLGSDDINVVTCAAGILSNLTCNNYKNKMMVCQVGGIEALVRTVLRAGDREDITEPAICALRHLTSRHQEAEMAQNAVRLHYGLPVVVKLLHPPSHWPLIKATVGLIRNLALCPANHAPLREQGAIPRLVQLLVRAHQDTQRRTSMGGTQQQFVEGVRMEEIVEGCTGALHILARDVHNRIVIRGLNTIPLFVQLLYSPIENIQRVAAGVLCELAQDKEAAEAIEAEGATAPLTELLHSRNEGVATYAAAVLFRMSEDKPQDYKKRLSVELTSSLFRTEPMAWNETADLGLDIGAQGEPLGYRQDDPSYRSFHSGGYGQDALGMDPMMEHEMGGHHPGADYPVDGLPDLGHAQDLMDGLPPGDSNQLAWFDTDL
# Experiment: fluorescence polarization competition vs 5FAM-TCF4(10-53) on full-length beta-catenin
# Description: The plate was incubated protected from light for 60 minutes at 20° C. prior to read. Reads were performed on a CLARIOstar plate reader (BMG Labtech) in duplicate, and data were fitted to a 1:1 binding model with hill slope using an in-house script. All provided concentrations are final concentrations.
row,Binder,IC50 [µM]
1,B1,5
2,B2,5
3,B3,5
4,B4,5
5,B5,5
6,B6,2.76
7,B7,0.153
8,B8,2
9,B9,0.0585
10,B10,0.134
11,B11,0.18
12,B12,0.121
13,B13,5
14,B14,5
15,B15,5
16,B16,5
17,B17,5
18,B18,5
